Data from the supplement of paper PMC10567573.

B1: NR2F2 (parent)
chain: VAHVESLQEKSQCALEEYVRSQYP
B2: MNAT1 (parent)
chain: LEEALYEYQPLQIETYGPHVPELE

Variants of: B1
Assay: protein stability index of a GFP-peptide fusion (GPS, HEK-293T) (PSI 1-6); higher = more stable
Conditions: c terminus: a fixed tail appended
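Note: lentivirally expressed fusions sorted by FACS into six bins by GFP to DsRed ratio, PSI derived from sequencing read proportions per bin multiplied by bin number.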

Protein stability index of substitutions, site by site:
S21: C 3.38; P 4.04; I 3.02; F 2.56; G 3.67; H 3.46; L 3.46; Y 2.89; V 3.34; K 3.15; D 3.77; N 3.92; W 2.24; Q 3.53; R 3.13; E 3.77; A 3.25; T 3.95; M 3.33
Q22: M 2.87; G 3.82; L 3.17; S 3.4; T 3.27; K 3.87; C 3.19; H 3.56; I 2.6; V 3.5; E 4.31; A 3.63; W 2.1; F 2.44; N 3.54; Y 3.34; D 4.15; R 3.05; P 3.3
Y23: H 3.88; T 4.01; W 2.7; I 3.9; K 3.98; E 4.71; D 4.53; G 4.14; N 4.74; S 4.36; R 4.51; M 3.46; V 3.76; L 3.75; C 4.13; Q 4.25; P 4.15; A 4.1; F 3.43
R20: Y 3.26
P24: E 3.94; I 3.19; S 3.47; N 3.94; G 3.72; D 4.29; Y 2.68; T 3.5; C 3.14; K 3.93; H 3.33; V 3.06; W 2.45; Q 3.35; R 4.01; F 2.62; L 3.15; M 3.22; A 3.73

Variants of: B2
Assay: as above
Conditions: c terminus: a fixed tail appended

Protein stability index: each site, then its substitutions
A4: Q 4.89; N 4.61; H 4.59; S 4.67; F 3.1; V 1.91; G 4.4; T 4.27; K 4.33; E 4.56; I 2.88; M 3.72; Y 3.51; R 4.81; W 2.96; L 3.57; D 4.84; P 4.28; C 3.81
I13: K 4.9; M 4.27; D 5.07; H 5.15; G 5.01; C 4.14; L 4.51; W 3.8; R 4.76; T 4.75; F 4.34; P 5.08; A 5.37; Q 5.01; N 5.5; E 5.29; Y 4.41; S 4.96
Y6: G 3.43; R 2.27; M 3; D 4.36; T 3.56; H 3.11; W 2.39; P 5.47; I 2.58; Q 2.81; L 3.43; E 2.74; K 2.46; A 2.3; N 3.7; V 3.33; C 2.61; S 2.41; F 2.8
L5: N 4.81; I 4.87; C 4.71; V 4.64; A 4.97; E 4.58; S 4.59; Q 5.38; W 3.89; D 5.12; H 4.96; K 5.06; R 4.32; G 4.8; M 4.64; F 4.33; Y 4.46; P 5.19; T 4.9
Q9: R 1.88; V 3.84; I 3.56; P 5.02; D 4.67; N 2.59; C 2.6; S 2.94; F 2.13; A 2.86; W 2.79; T 4.38; H 1.87; K 2.68; Y 2.43; E 4.38; G 3.46; M 2.74; L 2.7
L1: T 5.14; V 4.15; M 3.18; W 4; I 3.45; F 3.81; E 5.1; C 4.72; P 4.88; K 4.81; H 4.98; Y 4.45; Q 5.08; N 4.72; R 4.12; S 5.15; A 5.28; D 4.8; G 5.15
Q12: C 2.14; I 2.5; E 3.67; N 2.65; A 2.33; F 2.12; T 3.19; G 2.75; W 2.11; D 3.92; P 5.02; K 1.84; Y 2.01; R 2.27; H 2.5; L 2.67; S 2.21; V 2.46; M 2.35
P10: S 4.05; N 4.75; L 3.32; Q 4.43; I 2.77; E 4.6; D 4.33; T 4.1; Y 3.09; G 4.24; F 2.91; V 2.25; M 3.85; K 4.53; W 2.63; H 4.99; C 3.27; A 3.89; R 4.01
Y8: H 4.27; E 5.4; N 5.74; F 3.75; D 5.23; A 5.3; Q 5.5; L 4.75; C 4.91; G 5.41; I 4.92; S 5.53; R 5.44; W 3.59; P 5.25; T 5.38; V 4.98; M 4.71; K 5.14
E3: L 2; Y 2.04; S 3.63; M 2.19; A 2.43; R 2.79; F 3.39; T 3.16; G 3.41; Q 3; D 3.19; P 4.05; H 3.16; C 2.42; V 1.74; I 2.13; W 1.45; N 3.67; K 2.64
L11: E 4.77; M 3.17; W 4.27; S 4.11; I 2.56; K 4.26; G 5.26; R 4.32; Y 3.18; V 2.04; A 4.06; D 4.85; Q 4.28; T 3.99; C 2.99; N 4.71; P 5.15; H 4.61; F 4.11
E2: V 2.55; Q 1.71; C 3.03; S 2.4; R 3.28; T 2.2; M 2.71; W 2.34; F 1.71; P 3.7; I 2.67; A 2.26; K 2.47; H 1.73; G 2.24; L 2.96; N 2.4; D 3.89; Y 1.71
E7: Q 2.28; Y 1.98; W 2.1; H 2.11; I 2.44; D 3.92; M 2.19; G 3.53; N 2.73; C 1.92; P 2.71; K 1.87; S 2.76; T 2.68; V 1.73; L 2.25; F 1.87; A 2.19; R 1.73
E14: L 2.01; G 3.31; I 1.81; D 2.68; N 2.61; C 2.12; M 2.47; A 2.3; K 1.75; H 1.8; F 2.01
